Assay results published in paper PMC4306681.

Legend:
[1] = molecular target: Fc-tagged WT perlecan DII from WT CHO cells (UniProt P98160); experiment: radioligand binding; stable WT CHO cell lines expressing Fc or Fc-tagged proteins, binding of [I^125]labeled LDL (supplementary Fig. 3)
[2] = molecular target: Fc-tagged perlecan DI from WT CHO cells (UniProt P98160); experiment: as above
[3] = molecular target: Fc-tagged perlecan DI+II from WT CHO cells (UniProt P98160); experiment: as above
[4] = molecular target: Fc-tagged WT perlecan DII from WT CHO cells (UniProt P98160); experiment: pull-down; Fc-tagged proteins on protein-A agarose incubated with human ApoB-100 (5 μg); 20 mM HEPES pH 6.0, 10 mM NaCl, 1% BSA ('optimal binding condition'), room temperature 1 h; blot with anti-ApoB antibody, quantified from three experiments
[5] = molecular target: Fc-tagged perlecan DI+II from WT CHO cells (UniProt P98160); experiment: as above
[6] = molecular target: sialidase C-treated Fc-tagged WT perlecan DII; experiment: pull-down; Fc-tagged proteins on protein-A agarose incubated with human LDL (10 μg in Fig. 1E/F with 500 ng protein; 1.5 μg in Fig. 5D); 20 mM HEPES pH 6.0, 10 mM NaCl, 1% BSA, room temperature 1 h; blot with anti-LDL or anti-ApoB antibody
[7] = molecular target: Fc-tagged secreted perlecan DII (sDII), as purified in Fig. 1D; experiment: in vitro saturation binding analysis; sDII 10.0 pM with increasing LDL (supplementary Fig. 1); further conditions not shown

Sequence of human ApoB-100 (P04114 28-4563): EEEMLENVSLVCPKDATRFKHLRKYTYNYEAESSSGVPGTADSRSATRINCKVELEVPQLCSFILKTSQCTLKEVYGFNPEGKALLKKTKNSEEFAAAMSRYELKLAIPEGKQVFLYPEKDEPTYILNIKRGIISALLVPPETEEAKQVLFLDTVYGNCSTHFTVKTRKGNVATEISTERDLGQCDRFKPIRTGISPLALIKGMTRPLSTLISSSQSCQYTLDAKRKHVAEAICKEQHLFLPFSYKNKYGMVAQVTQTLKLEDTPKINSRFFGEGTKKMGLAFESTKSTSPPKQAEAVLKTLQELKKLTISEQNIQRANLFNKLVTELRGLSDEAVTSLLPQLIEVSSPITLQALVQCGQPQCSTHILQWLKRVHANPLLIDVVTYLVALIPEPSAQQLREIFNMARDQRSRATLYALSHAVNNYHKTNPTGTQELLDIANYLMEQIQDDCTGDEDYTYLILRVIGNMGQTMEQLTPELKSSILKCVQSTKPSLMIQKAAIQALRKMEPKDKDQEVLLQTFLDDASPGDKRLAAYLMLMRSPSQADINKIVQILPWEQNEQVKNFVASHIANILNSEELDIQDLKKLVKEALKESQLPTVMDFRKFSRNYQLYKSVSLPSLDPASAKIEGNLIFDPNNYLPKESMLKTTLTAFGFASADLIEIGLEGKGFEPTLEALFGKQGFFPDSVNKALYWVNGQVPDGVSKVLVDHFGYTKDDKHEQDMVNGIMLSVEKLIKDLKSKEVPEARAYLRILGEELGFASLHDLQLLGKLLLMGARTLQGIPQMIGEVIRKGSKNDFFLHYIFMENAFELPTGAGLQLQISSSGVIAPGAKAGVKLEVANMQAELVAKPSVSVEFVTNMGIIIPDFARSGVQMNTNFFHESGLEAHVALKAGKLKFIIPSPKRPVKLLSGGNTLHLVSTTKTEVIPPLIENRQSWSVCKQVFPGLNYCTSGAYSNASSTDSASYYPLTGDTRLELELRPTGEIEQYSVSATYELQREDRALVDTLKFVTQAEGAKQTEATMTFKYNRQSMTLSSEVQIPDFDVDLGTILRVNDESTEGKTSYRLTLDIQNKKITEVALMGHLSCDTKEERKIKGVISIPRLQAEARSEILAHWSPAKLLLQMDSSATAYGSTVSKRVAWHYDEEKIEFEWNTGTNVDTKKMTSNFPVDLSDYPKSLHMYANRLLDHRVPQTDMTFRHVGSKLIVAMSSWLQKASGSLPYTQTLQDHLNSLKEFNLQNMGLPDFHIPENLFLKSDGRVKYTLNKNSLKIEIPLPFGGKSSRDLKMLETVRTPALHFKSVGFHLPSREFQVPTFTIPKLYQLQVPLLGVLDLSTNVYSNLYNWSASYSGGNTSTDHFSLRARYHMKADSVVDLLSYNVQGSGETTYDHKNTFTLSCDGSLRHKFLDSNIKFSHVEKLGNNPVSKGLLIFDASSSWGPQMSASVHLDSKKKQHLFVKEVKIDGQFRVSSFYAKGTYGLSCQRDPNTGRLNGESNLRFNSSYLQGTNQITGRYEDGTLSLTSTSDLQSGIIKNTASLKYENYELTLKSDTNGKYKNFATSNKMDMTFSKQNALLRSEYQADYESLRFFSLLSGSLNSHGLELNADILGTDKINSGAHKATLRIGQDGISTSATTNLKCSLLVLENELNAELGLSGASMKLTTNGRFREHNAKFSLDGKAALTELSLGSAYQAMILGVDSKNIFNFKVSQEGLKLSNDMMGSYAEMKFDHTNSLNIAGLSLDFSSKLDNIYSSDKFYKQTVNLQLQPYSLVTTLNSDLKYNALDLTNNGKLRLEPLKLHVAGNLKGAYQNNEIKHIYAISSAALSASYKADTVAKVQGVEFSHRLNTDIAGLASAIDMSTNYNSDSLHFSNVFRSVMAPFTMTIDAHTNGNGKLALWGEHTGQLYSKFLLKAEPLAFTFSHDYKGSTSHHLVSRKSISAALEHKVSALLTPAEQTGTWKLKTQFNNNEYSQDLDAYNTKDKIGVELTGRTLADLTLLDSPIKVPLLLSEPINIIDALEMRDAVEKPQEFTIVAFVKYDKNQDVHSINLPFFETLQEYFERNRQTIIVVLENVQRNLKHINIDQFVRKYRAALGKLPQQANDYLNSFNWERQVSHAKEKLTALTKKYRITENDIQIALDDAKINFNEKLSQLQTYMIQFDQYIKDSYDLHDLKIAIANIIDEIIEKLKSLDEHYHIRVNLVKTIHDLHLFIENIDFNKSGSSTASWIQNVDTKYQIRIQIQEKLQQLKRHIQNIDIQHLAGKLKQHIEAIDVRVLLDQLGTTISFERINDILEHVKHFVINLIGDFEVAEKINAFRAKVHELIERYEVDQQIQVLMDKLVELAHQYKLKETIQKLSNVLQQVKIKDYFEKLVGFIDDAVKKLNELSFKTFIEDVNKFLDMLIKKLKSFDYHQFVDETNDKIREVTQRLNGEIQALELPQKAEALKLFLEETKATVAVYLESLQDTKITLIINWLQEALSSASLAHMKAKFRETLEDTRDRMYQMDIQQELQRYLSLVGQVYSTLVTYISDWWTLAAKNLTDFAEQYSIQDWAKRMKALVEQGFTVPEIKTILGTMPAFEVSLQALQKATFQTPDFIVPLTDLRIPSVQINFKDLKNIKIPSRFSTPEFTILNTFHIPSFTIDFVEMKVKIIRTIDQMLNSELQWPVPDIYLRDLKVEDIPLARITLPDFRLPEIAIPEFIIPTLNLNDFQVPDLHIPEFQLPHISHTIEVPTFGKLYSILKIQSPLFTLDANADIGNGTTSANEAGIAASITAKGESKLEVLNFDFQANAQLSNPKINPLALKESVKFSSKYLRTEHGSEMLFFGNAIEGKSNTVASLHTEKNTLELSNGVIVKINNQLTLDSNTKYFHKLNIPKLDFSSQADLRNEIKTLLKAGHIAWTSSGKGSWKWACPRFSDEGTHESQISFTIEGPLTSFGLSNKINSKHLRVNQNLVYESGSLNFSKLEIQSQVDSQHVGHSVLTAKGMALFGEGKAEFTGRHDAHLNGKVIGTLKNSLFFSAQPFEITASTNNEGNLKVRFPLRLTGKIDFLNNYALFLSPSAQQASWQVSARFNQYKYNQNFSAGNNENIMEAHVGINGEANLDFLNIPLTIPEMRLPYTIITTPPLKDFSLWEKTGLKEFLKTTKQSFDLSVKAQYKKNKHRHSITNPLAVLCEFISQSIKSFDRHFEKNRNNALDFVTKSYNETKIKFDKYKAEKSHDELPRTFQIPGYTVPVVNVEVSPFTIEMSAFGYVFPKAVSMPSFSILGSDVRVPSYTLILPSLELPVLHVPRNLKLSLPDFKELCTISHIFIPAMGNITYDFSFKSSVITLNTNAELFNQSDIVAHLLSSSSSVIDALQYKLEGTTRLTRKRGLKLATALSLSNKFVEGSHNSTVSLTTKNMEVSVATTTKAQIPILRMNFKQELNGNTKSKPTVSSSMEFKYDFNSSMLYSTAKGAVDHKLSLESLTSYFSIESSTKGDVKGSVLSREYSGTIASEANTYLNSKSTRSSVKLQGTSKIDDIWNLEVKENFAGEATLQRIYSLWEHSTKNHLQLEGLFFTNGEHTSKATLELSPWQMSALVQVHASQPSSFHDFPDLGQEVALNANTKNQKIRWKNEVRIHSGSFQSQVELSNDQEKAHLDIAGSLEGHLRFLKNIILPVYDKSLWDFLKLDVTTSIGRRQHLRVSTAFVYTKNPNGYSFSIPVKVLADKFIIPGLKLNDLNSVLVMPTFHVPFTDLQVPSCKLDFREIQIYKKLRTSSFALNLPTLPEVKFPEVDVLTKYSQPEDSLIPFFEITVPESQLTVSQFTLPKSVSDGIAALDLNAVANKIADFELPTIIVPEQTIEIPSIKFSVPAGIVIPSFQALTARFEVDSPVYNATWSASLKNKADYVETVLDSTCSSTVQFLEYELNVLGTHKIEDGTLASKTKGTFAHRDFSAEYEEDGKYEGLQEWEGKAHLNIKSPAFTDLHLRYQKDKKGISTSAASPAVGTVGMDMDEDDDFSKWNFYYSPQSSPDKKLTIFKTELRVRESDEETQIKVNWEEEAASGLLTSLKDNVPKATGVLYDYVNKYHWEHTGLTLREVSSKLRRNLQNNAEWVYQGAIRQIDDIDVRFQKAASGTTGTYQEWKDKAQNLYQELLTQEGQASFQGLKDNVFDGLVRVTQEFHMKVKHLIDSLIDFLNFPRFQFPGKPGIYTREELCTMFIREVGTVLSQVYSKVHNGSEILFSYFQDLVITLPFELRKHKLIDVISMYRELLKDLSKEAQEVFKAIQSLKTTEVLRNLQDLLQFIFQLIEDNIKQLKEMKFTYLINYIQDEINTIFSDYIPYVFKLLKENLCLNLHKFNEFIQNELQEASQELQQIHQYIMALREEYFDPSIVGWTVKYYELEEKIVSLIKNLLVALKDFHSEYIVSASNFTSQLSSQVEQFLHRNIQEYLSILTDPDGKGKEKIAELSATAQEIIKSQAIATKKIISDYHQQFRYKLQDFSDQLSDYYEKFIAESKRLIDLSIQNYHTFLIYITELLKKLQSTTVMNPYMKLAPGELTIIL

## [I^125]labeled LDL (complex)
[1]
  percent increase of [I^125]LDL binding to cells: 31%
[2]
  percent increase of [I^125]LDL binding to cells: 26%
[3]
  percent increase of [I^125]LDL binding to cells: 43%

## human ApoB-100 (from UniProt P04114 28-4563) (natural protein)
[4]
  percent increase of binding over WT DI: 24%
[5]
  percent increase of binding over DI alone: 90%
  percent increase of binding over WT DII: 53%

## human LDL (complex)
[6]
  percent reduction of binding against mock-treated WT DII: 50%
[7]
  LDL concentration at which binding to sDII (10.0 pM) became saturated: 16.3 pM
